Kd, koff and kon data for three molecules are collected here from patent US20110262424A1 (published 2011).

In general, Kd refers to the equilibrium constant for the complex coming apart. A high value points to weaker binding. The term koff denotes the rate constant with which the complex falls apart. Low values mean slow dissociation, high ones fast dissociation. Broadly, the kon is the rate constant with which the complex forms.

Assay [1] deals with human von Willebrand factor (human) (UniProt P04275). Nature of the assay: SPR, Biacore 3000, vWF amine-coupled to CM5 chip, global fit to a simple interaction model.
Assay [2] has as its target T1, human von Willebrand factor (human, UniProt P04275 764-2813, limits assumed).
T1 construct: The preparation used in the assay is not described; also called vWF
The description is as above. How it is done:
The binding of human-cl rhFVIII to human von Willebrand factor was analyzed using surface plasmon resonance with the Biacore 3000 instrument. The recombinant factor VIII products X and Y derived from murine cell lines (murine-cl rhFVIII X and Y) were used as comparators.
The von Willebrand factor was immobilized through primary amines to the carboxymethylated dextran of a CM5 sensor chip. The binding data were globally fit to a simple interaction model yielding kinetic parameters and affinities. The kinetics in binding and affinity to von Willebrand factor were analyzed. Furthermore, a quantitative measure of the capacity of Human-cl rhFVIII to bind to von Willebrand factor in comparison with other recombinant factor VIII products was obtained.

In assay [1], “murine-cl rhFVIII X (recombinant factor VIII product X derived from a murine cell line) (from UniProt P00451 20-2351)” showed an equilibrium dissociation constant (Kd) of 320 pM, a koff of 0.00105 s⁻¹ and an association rate constant (kon) of 3.3e+06 M⁻¹ s⁻¹.
For “murine-cl rhFVIII Y (recombinant factor VIII product Y derived from a murine cell line) (from UniProt P00451 20-2351)”, in that order: 340 pM, 0.00105 s⁻¹ and 3.1e+06 M⁻¹ s⁻¹.

B1: human cell line recombinant human factor VIII (human-cl rhFVIII), a human B-domain-deleted factor VIII protein produced in the human cell line HEK293F (other, UniProt P00451 20-2351, looked up)
chain: ATRRYYLGAVELSWDYMQSDLGELPVDARFPPRVPKSFPFNTSVVYKKTLFVEFTDHLFNIAKPRPPWMGLLGPTIQAEVYDTVVITLKNMASHPVSLHAVGVSYWKASEGAEYDDQTSQREKEDDKVFPGGSHTYVWQVLKENGPMASDPLCLTYSYLSHVDLVKDLNSGLIGALLVCREGSLAKEKTQTLHKFILLFAVFDEGKSWHSETKNSLMQDRDAASARAWPKMHTVNGYVNRSLPGLIGCHRKSVYWHVIGMGTTPEVHSIFLEGHTFLVRNHRQASLEISPITFLTAQTLLMDLGQFLLFCHISSHQHDGMEAYVKVDSCPEEPQLRMKNNEEAEDYDDDLTDSEMDVVRFDDDNSPSFIQIRSVAKKHPKTWVHYIAAEEEDWDYAPLVLAPDDRSYKSQYLNNGPQRIGRKYKKVRFMAYTDETFKTREAIQHESGILGPLLYGEVGDTLLIIFKNQASRPYNIYPHGITDVRPLYSRRLPKGVKHLKDFPILPGEIFKYKWTVTVEDGPTKSDPRCLTRYYSSFVNMERDLASGLIGPLLICYKESVDQRGNQIMSDKRNVILFSVFDENRSWYLTENIQRFLPNPAGVQLEDPEFQASNIMHSINGYVFDSLQLSVCLHEVAYWYILSIGAQTDFLSVFFSGYTFKHKMVYEDTLTLFPFSGETVFMSMENPGLWILGCHNSDFRNRGMTALLKVSSCDKNTGDYYEDSYEDISAYLLSKNNAIEPRSFSQNSRHQAYRYRRGEITRTTLQSDQEEIDYDDTISVEMKKEDFDIYDEDENQSPRSFQKKTRHYFIAAVERLWDYGMSSSPHVLRNRAQSGSVPQFKKVVFQEFTDGSFTQPLYRGELNEHLGLLGPYIRAEVEDNIMVTFRNQASRPYSFYSSLISYEEDQRQGAEPRKNFVKPNETKTYFWKVQHHMAPTKDEFDCKAWAYFSDVDLEKDVHSGLIGPLLVCHTNTLNPAHGRQVTVQEFALFFTIFDETKSWYFTENMERNCRAPCNIQMEDPTFKENYRFHAINGYIMDTLPGLVMAQDQRIRWYLLSMGSNENIHSIHFSGHVFTVRKKEEYKMALYNLYPGVFETVEMLPSKAGIWRVECLIGEHLHAGMSTLFLVYSNKCQTPLGMASGHIRDFQITASGQYGQWAPKLARLHYSGSINAWSTKEPFSWIKVDLLAPMIIHGIKTQGARQKFSSLYISQFIIMYSLDGKKWQTYRGNSTGTLMVFFGNVDSSGIKHNIFNPPIIARYIRLHPTHYSIRSTLRMELMGCDLNSCSMPLGMESKAISDAQITASSYFTNMFATWSPSKARLHLQGRSNAWRPQVNNPKEWLQVDFQKTMKVTGVTTQGVKSLLTSMYVKEFLISSSQDGHQWTLFFQNGKVKVFQGNQDSFTPVVNSLDPPLLTRYLRIHPQSWVHQIALRMEVLGCEAQDLY
notes: B-domain-deleted construct made in HEK293F cells
For B1, in assay [2], the dissociation constant (Kd) is 210 pM, the dissociation rate constant (koff) came to 0.00095 s⁻¹ and the kon came out at 4.5e+06 M⁻¹ s⁻¹.
